Data taken from patent publication US9061070B2, “Treating stroke and other diseases without inhibiting N-type calcium channels” (NoNO, Inc., priority 2007, dated 2015).

Biological target: T1, chemokine CXCR2 (IL-8Rb) (Homo sapiens, UniProt P25025)
T1 sequence (P25025 1-360): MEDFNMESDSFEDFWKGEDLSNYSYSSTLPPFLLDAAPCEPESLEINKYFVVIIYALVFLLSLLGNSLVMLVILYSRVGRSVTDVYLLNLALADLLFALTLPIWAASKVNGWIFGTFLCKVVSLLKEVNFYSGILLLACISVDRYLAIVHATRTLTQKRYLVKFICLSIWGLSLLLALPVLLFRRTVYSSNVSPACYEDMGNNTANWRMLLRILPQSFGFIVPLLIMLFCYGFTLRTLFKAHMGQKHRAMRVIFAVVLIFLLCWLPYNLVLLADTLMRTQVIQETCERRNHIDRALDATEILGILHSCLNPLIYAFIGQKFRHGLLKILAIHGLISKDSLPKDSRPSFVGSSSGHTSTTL
Experiment: Competitive radioligand binding screen, IL-8/IL-8RB
Conditions: 10 μM peptide

## YGRKKRRQRRRKLSSIESDV [Tat-NR2B9c, reference compound]
  inhibition of IL-8/IL-8RB: 80%
